Measured values: article PMC7687367

What was measured:
[1] = molecular target: SARS-CoV RBD, His-tagged, for antibody binding studies (SARS-CoV) (UniProt P59594); experiment: BLI
[2] = molecular target: SARS-CoV-2 RBD, His-tagged, for antibody binding studies (SARS-CoV-2) (UniProt P0DTC2); experiment: BLI

| Substance | Kd [1] [nM] | Kd [2] [nM] |
| --- | --- | --- |
| COVA1-16 Fab, His-tagged | 405 | 46 |
| COVA1-16 IgG1 antibody | 125 | 0.2 |
